The term IC50 denotes the concentration that inhibits the measured activity by half. A higher IC50 goes with lower potency.

These results are taken from patent US20220236279A1.

The target of experiment [1] is human atypical chemokine receptor 3 (ACKR3) (human) (UniProt P25106). As to the kind of experiment: cell-based or functional assay.
For experiment [2] the target is unchanged. As to the kind of experiment: binding competition with CXCL12-AF647, flow cytometry.

Chain of human atypical chemokine receptor 3 (ACKR3) (human) (P25106 whole entry): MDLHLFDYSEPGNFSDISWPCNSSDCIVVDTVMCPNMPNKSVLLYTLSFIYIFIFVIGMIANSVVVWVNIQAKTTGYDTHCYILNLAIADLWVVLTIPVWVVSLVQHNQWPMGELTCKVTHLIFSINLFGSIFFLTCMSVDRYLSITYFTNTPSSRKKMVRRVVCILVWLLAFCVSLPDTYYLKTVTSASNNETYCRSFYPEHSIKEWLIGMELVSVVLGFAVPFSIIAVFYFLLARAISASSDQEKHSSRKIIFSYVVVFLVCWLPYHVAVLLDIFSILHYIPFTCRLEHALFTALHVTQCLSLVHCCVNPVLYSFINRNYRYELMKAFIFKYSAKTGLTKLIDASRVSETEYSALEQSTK

“CXCL11 (C-X-C motif chemokine 11) (from UniProt O14625 22-94) (ligand)” displayed an EC50, β-arrestin recruitment (NanoBiT) in experiment [1] of 2.2 nM.
In experiment [2], nociceptin 1-13 amide displayed an IC50 of more than 10000 nM.
